Measured values taken from US20220041658A1 (PROTAGONIST THERAPEUTICS, published 2022).
Starred links: 1 amine or outer side, 2 acyl side, 3 side chain; linkers in the order of their positions; H or OH if unused. Positions of bridges follow the written chain, without caps; N, C: chain ends. Non-standard residues stand in square brackets, D forms with d. Trp(7-nPr) = CCCc1cccc2c(C[C@H](N[*:1])C(=O)[*:2])c[nH]c12; Trp(7-Me) = Cc1cccc2c(C[C@H](N)C(=O)O)c[nH]c12; Trp(2-Me) = Cc1[nH]c2ccccc2c1C[C@H](N)C(=O)O; 2Nal = N[C@@H](Cc1ccc2ccccc2c1)C(=O)O; AEF = NCCOc1ccc(C[C@H](N)C(=O)O)cc1; Cit = NC(=O)NCCC[C@H](N)C(=O)O; Pen = CC(C)(S)[C@H](N)C(=O)O; αMeK = C[C@](N)(CCCCN)C(=O)O; Abu = CC[C@H](N)C(=O)O; βAla = NCCC(=O)O

T1: interleukin-23 receptor (IL-23R) (human, UniProt Q5VWK5 24-629)
T1 sequence (looked up): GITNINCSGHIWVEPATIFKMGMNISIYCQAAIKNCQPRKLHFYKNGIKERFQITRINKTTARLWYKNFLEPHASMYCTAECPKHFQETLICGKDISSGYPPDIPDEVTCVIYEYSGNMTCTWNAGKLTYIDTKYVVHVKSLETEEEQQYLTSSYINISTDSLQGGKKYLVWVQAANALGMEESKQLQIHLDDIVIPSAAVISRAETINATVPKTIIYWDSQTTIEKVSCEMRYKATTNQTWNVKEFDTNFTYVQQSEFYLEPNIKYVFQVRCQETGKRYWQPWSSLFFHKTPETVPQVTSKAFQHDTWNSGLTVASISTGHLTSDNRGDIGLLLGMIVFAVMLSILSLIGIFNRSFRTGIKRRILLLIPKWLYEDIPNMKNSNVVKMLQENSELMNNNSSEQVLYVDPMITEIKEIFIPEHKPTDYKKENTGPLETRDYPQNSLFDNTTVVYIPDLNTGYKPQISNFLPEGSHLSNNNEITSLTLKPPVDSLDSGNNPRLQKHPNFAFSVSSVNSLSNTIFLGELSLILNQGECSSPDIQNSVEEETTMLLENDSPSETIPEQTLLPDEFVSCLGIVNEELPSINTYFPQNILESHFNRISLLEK


Legend:
[1] = target: T1, interleukin-23 receptor (IL-23R); assay: cell-based or functional assay
[2] = target: T1, interleukin-23 receptor (IL-23R); assay: cell-based or functional assay; remark: listed apart in the source

pStat3 HTRF IC50 [1]	NK Cell Assay IC50 [2] [nM]	Binder
0.849 nM		XNTXQXXXXKNX (Ac-[Pen]-N-T-[W(7-Me)]-Q-[Pen]-Phe[4-(2-aminoethoxy)]-[2-Nal]-[a-MeOrn]-[Lys(Ac)]-N-[bA]-NH2; Pen-Pen disulfide) [Peptide of SEQ ID NO: 278]
5.97 nM		XNTXQXXXXXXX (Ac-[Pen]-N-T-[W(7-Me)]-Q-[Pen]-Phe[4-(2-aminoethoxy)]-[2-Nal]-[a-MeLys]-[Cit]-[bA]-[bA]-NH2; Pen-Pen disulfide) [Peptide of SEQ ID NO: 279]
36.5 nM	157	XNTXQXXXXKPX (Ac-[Pen]-NT-[W(7-Me)]-Q-[Pen]-Phe[4-(2-aminoethoxy)]-[2-Nal]-[a-MeLeu]-[Lys(Ac)]-[(D)Pro]-[bA]-NH2; Pen-Pen disulfide) [Peptide of SEQ ID NO: 212]
1.05 nM	3.06	XNTXQXXXXKNX (Ac-[Pen]-NT-[W(7-Me)]-Q-[Pen]-Phe[4-(2-aminoethoxy)]-[2-Nal]-[a-MeLeu]-[Lys(Ac)]-N-[bA]-NH2; Pen-Pen disulfide) [Peptide of SEQ ID NO: 201]
2.69 nM		XNTXKXXXXEXX (Ac-[Pen]-N-T-[W(7-Me)]-[Lys(Ac)]-[Pen]-Phe[4-(2-aminoethoxy)]-[2-Nal]-[a-MeLys]-E-[bA]-[bA]-NH2; Pen-Pen disulfide) [Peptide of SEQ ID NO: 273]
0.564 nM		XNTXQXXXXKNX (Ac-[Pen]-N-T-[W(7-Me)]-Q-[Pen]-Phe[4-(2-aminoethoxy)]-[2-Nal]-[DiethylGly]-[Lys(Ac)]-N-[bA]-NH2; Pen-Pen disulfide) [Peptide of SEQ ID NO: 276]
66.1 nM	> 500	XNTXQXXXXKLX (Ac-[Pen]-NT-[W(7-Me)]-Q-[Pen]-Phe[4-(2-aminoethoxy)]-[2-Nal]-[a-MeLeu]-[Lys(Ac)]-[(D)Leu]-[bA]-NH2; Pen-Pen disulfide) [Peptide of SEQ ID NO: 210]
1.41 nM		XNTXXXXXXKNL (Ac-[Pen]-N-T-[W(7-Me)]-[Lys(IVA)]-[Pen]-Phe[4-(2-aminoethoxy)]-[2-Nal]-[a-MeLys]-[Lys(Ac)]-N-[(D)Leu]-NH2; Pen-Pen disulfide) [Peptide of SEQ ID NO: 315]
4.45 nM	12.7	Ac-[dR][Abu]QT[Trp(7-Me)]K(Ac)C[AEF][2Nal][αMeK]K(Ac)N[dL]-NH2 (thioether 2-7 (inferred)) [Peptide of SEQ ID NO: 325]
17.7 nM		Ac-[Pen]NT[Trp(7-Me)][Cit][Pen][AEF][2Nal][αMeK][Cit][βAla][βAla]-NH2 (disulfide 1-6; SMILES CC(=O)N[C@@H]1C(=O)N[C@@H](CC(N)=O)C(=O)N[C@@H]([C@@H](C)O)C(=O)N[C@@H](Cc2c[nH]c3c(C)cccc23)C(=O)N[C@@H](CCCNC(N)=O)C(=O)N[C@H](C(=O)N[C@@H](Cc2ccc(OCCN)cc2)C(=O)N[C@@H](Cc2ccc3ccccc3c2)C(=O)N[C@@](C)(CCCCN)C(=O)N[C@@H](CCCNC(N)=O)C(=O)NCCC(=O)NCCC(N)=O)C(C)(C)SSC1(C)C) [Peptide of SEQ ID NO: 281]
0.55 nM	4.52	Ac-[Pen]ST[Trp(7-Me)]K(Ac)[Pen][AEF][2Nal][αMeK]K(Ac)N[dL]-NH2 (disulfide 1-6 (inferred)) [Peptide of SEQ ID NO: 334]
1.48 nM		XNTXKXXXXKNL (Ac-[Pen]-N-T-[W(7-OMe)]-[Lys(Ac)]-[Pen]-Phe[4-(2-aminoethoxy)]-[2-Nal]-[a-MeLys]-[Lys(Ac)]-N-[(D)Leu]-NH2; Pen-Pen disulfide) [Peptide of SEQ ID NO: 288]
0.484 nM		XNTXQXXXXKNX (Ac-[Pen]-N-T-[W(7-Me)]-Q-[Pen]-Phe[4-(2-aminoethoxy)]-[2-Nal]-[Achc]-[Lys(Ac)]-N-[bA]-NH2; Pen-Pen disulfide) [Peptide of SEQ ID NO: 274]
1.61 nM		Ac-[Pen]NT[Trp(7-i-Pr)]K(Ac)[Pen][AEF][2Nal][αMeK]K(Ac)N[dL]-NH2 (disulfide 1-6 (inferred)) [Peptide of SEQ ID NO: 286]
0.283 nM	1.62	XNTXKXXXXKNN (Ac-[Pen]-N-T-[W(7-Me)]-[Lys(Ac)]-[Pen]-Phe[4-(2-aminoethoxy)]-[2-Nal]-[a-MeLeu]-[Lys(Ac)]-N-[(D)Asn]-NH2; Pen-Pen disulfide) [Peptide of SEQ ID NO: 354]
3.03 nM	6.3	XNTXKXXXXXNL (Ac-[Pen]-N-T-[W(7-Me)]-[Lys(Ac)]-[Pen]-Phe[4-(2-aminoethoxy)]-[2-Nal]-[a-MeLys]-[Lys(octanoic)]-N-[(D)Leu]-NH2; Pen-Pen disulfide) [Peptide of SEQ ID NO: 358]
> 1 µM		Ac-[Pen]NT[Trp(7-Me)]K(Ac)[Pen][His_3Bom][2Nal][αMeK]K(Ac)N[dL]-NH2 (disulfide 1-6 (inferred)) [Peptide of SEQ ID NO: 291]
0.849 nM		Ac-[Pen]NT[Trp(7-nPr)]K(Ac)[Pen][AEF][2Nal][αMeK]K(Ac)N[dL]-NH2 (disulfide 1-6; SMILES CCCc1cccc2c(C[C@@H]3NC(=O)[C@H]([C@@H](C)O)NC(=O)[C@H](CC(N)=O)NC(=O)[C@@H](NC(C)=O)C(C)(C)SSC(C)(C)[C@@H](C(=O)N[C@@H](Cc4ccc(OCCN)cc4)C(=O)N[C@@H](Cc4ccc5ccccc5c4)C(=O)N[C@@](C)(CCCCN)C(=O)N[C@@H](CCCCNC(C)=O)C(=O)N[C@@H](CC(N)=O)C(=O)N[C@H](CC(C)C)C(N)=O)NC(=O)[C@H](CCCCNC(C)=O)NC3=O)c[nH]c12) [Peptide of SEQ ID NO: 285]
13 nM		XNTXXXXXXKNL (Ac-[Pen]-N-T-[W(7-Me)]-[Lys(octanoic)]-[Pen]-Phe[4-(2-aminoethoxy)]-[2-Nal]-[a-MeLys]-[Lys(Ac)]-N-[(D)Leu]-NH2; Pen-Pen disulfide) [Peptide of SEQ ID NO: 317]
0.715 nM	7.1	Ac-[Pen]NT[Trp(7-Me)]K(Ac)[Pen][AEF][Trp(2-Me)][αMeK]K(Ac)N[dK]-NH2 (disulfide 1-6 (inferred)) [Peptide of SEQ ID NO: 353]
0.193 nM	4.01	XNTXKXXXXXNL (Ac-[Pen]-N-T-[W(7-Me)]-[Lys(Ac)]-[Pen]-Phe[4-(2-aminoethoxy)]-[2-Nal]-[a-MeLys]-[Lys(IVA)]-N-[(D)Leu]-NH2; Pen-Pen disulfide) [Peptide of SEQ ID NO: 356]
